Reference: patent US20230242675A1 (SHANGHAI EPIMAB BIOTHERAPEUTICS, published 2023)

B1: EM0005-mAb87c (antibody, human IgG1, kappa, V domains shown)
VH: EVQLQQSGPELVKPGASVKISCKASGYSFTDYYINWVKQSPEKSLEWIGETIPNTGGTTYNQKFKAKATLTVDKSSSTAYMQLKSLTSEDSAVYYCARYQSGSPFAYWGQGTPVTVSS
VL: DIVMTQSQKFMSTTVGDRVSITCKASQNVGTAVAWYQQKPGQSPKLLIYSASNRYTGVPDRFTGSGSGTDFTLTISNMQSEDLADYFCQQHYSTPYTFGGGTKLEIKR
notes: Chimeric full-length IgG1; also called EM0005-87c
B2: EM0005-mAb90c (antibody, human IgG1, kappa, V domains shown)
VH: QVQLKQSGAELVRPGSSVKMSCKTSGYTFTSHSINWVKQRPGQGLEWIGYMYIGNGYTEYNEKFKGKATLTSDTSSTTAYMQLSSLTSEDSAIYFCAKITPVVAPYVMDYWGQGTSVTVSS
VL: DIVMTQTHKFMSTSVGDRVSITCKASQDVGTAVAWYQQKPGQSPKLLIYWASTRHTGVPDRFTGSGSGTDFTLTISNVQSEDLADYFCQQYSSYPYTFGGGTKLELKR
notes: Chimeric full-length IgG1; also called EM0005-90c

Columns and labels:
[1] = molecular target: T1, cynomolgus (cyno) PD-L1/His fusion protein (cynomolgus, UniProt G7PSE7 19-239); experiment: BLI Octet RED96, cyno PD-L1
T1 construct: also called cynomolgus PD-L1; not shown: His tag

[2] = molecular target: T2, human PD-L1/His fusion protein (human, UniProt Q9NZQ7 19-239); experiment: BLI off-rate; test group 2 (reference itself)
Protocol: (§1) Briefly, antibodies were characterized for affinities and binding kinetics by Octet®RED96 biolayer interferometry (Pall ForteBio LLC). Antibodies were captured by Anti-hIgG Fc Capture (AHC) Biosensors (Pall) at a concentration of 100 nM for 30 seconds. Sensors were then dipped into running buffer (1×pH 7.2 PBS, 0.05% Tween 20, 0.1% BSA) for 60 seconds to check baseline. Binding was measured by dipping sensors into a single concentration of recombinant human PD-L1/His fusion protein (Novoprotein). Dissociation was followed by dipping sensors into running buffer for 1200 seconds. The association and dissociation curves were fitted to a 1:1 Langmuir binding model using ForteBio Data Analysis software (Pall). […] The off-rate ratio serves as a data normalization. Accordingly, in each test group, the off-rate ratios of the humanized antibodies can be compared with that of the chimeric antibody, and the off-rate ratios of each of the humanized antibodies can be compared to one another within all test groups.

[3] = molecular target: T2, human PD-L1/His fusion protein; experiment: BLI off-rate; test group 4 (reference itself)
Protocol: as §1

[4] = molecular target: T2, human PD-L1/His fusion protein; experiment: BLI Octet RED96, antibody on AHC sensor, single conc. PD-L1/His; test group 3
Protocol: as §1

[5] = molecular target: T2, human PD-L1/His fusion protein; experiment: BLI Octet RED96, antibody on AHC sensor, single conc. PD-L1/His; test group 4
Protocol: as §1

[6] = molecular target: T2, human PD-L1/His fusion protein; experiment: BLI off-rate; test group 1 (reference itself)
Protocol: as §1

[7] = molecular target: T3, human PD-L1 on the cell surface (CHO-K1 cells stably expressing human PD-L1) (human, UniProt Q9NZQ7 19-290); experiment: FACS on CHO-K1/hPD-L1 cells
T3 construct: whole, on cells; Also used here for PD-L1 on the monocyte-derived dendritic cells of the MLR assay (functional rows); also called CHO-K1/PD-L1; CHOK1-PD-L1
Protocol: The ability of the purified antibodies to bind to cell membrane human PD-L1 was determined by FACS analysis. CHO-K1 cells stably expressing human PD-L1 (CHO-K1/hPD-L1 cells) were resuspended in PBS containing 2% FBS (FACS buffer) and seeded at 1×10⁵ cells/well into 96-well round-bottomed plates (Corning; Cat. No. 3799). […] The assay plate was then read on a flow cytometer. The data were processed by GraphPad software, and EC50 values were calculated. The EC50 for binding activity according to this FACS analysis is the concentration at which of an antibody induces a response halfway between the baseline and maximum and reflects the binding ability of the antibody.

[8] = molecular target: T2, human PD-L1/His fusion protein; experiment: ELISA, coated human PD-L1 protein, anti-human Fc detection
Protocol: (§2) The ability of an antibody to bind human or cynomolgus (cyno) PD-L1 (binding activity) was determined by ELISA. ELISA plates were incubated overnight at 4° C. with 50 μl of the human or cyno PD-L1 protein described above diluted in PBS buffer, pH 7.4, at 1 μg/ml. Plates were washed four times in washing buffer (PBS containing 0.05% Tween 20) and blocked for 1 hour at 37° C. with 200 μl per well of blocking buffer (1% BSA in PBS containing 0.05% Tween 20). After blocking buffer was removed, diluted purified antibodies (200 nM and 1:5 serial dilutions to provide 7 concentrations of each antibody) were added to the wells at 100 μl per well and incubated at 37° C. for 1 hour. The wells were washed four times with washing buffer, and anti-human IgG (Fc-specific) HRP-conjugated antibody (Sigma), diluted 1:10,000, was added to the wells at 100 μl per well. The plates were incubated for 1 hour at 37° C. and washed four times in washing buffer. 100 μl of tetramethylbenzidine (TMB) chromogenic solution were added per well. Following color development, the reaction was stopped with 1 N HCl, and absorbance at 450 nm was measured on a VARIOSKAN™ LUX multimode microplate reader (ThermoFisher Scientific, Vataa, Finland). The data were processed by GraphPad software, and EC50 values were calculated. The EC50 for binding activity according to this ELSA is the concentration at which an antibody induces a response halfway between the baseline and maximum and indicates the binding ability of the antibody.

[9] = molecular target: T2, human PD-L1/His fusion protein; experiment: BLI Octet RED96, antibody on AHC sensor, PD-L1/His in solution
Protocol: Binding of antibodies to PD-L1 was also assessed using biolayer interferometry (BLI) using an Octet® RED96 sensor device (Pall ForteBio LLC). Antibodies were captured by anti-hIgG Fc capture (AHC) Biosensors (Pall) at a concentration of 100 nM for 30 seconds. Sensors were then dipped into running buffer (1×pH7.2 PBS, 0.05% Tween 20, 0.1% BSA) for 60 seconds to check the baseline. Binding was measured by dipping sensors into a series of diluted concentrations of recombinant human PD-L1/His fusion protein. Dissociation was followed by dipping sensors into running buffer for 1200 seconds. The association and dissociation curves were fitted to a 1:1 Langmuir binding model using ForteBio Data Analysis software (Pall). The equilibrium dissociation constant KD (molarity) of the reaction between antibodies and related target proteins was then calculated from the kinetic rate constants using the formula KD=koff/kon.

[10] = molecular target: human PD-L1/Fc Fusion Protein (human); experiment: RBA ELISA: coated PD-L1/Fc, competitor biotinylated human PD-1
Protocol: ELISA plates were coated with 100 μl of 1 μg/ml of human PD-L1/Fc in PBS and incubated overnight at 4° C. Plates were washed four times in washing buffer (PBS containing 0.05% Tween 20) and blocked for 1 hour at 37° C. with 200 μl per well of blocking buffer (1% BSA in PBS containing 0.05% Tween 20). […] A human IgG was included as negative control. The signal was developed by adding streptavidin-HRP (Cat. No. S2468, Sigma) (100 μl/well at 1:5000 dilution) and incubating for 40 minutes at 37° C., followed by washing four times in washing buffer. Then, 100 μl of TMB solution were added per well. Following color development, the reaction was stopped with 1 N HCl, and absorbance at 450 nm was measured. The data were processed by GraphPad software, and IC50 values were calculated. […] The signal reduction induced by antibody samples was normalized to inhibition percentage, where the negative control was 0% inhibition, and the absolute value of signal reduction of each antibody divided by the signal of the negative control equals the percent inhibition by the antibody.

[11] = molecular target: T2, human PD-L1/His fusion protein; experiment: BLI off-rate; test group 3 (reference itself)
Protocol: as §1

[12] = molecular target: T2, human PD-L1/His fusion protein; experiment: BLI Octet RED96, antibody on AHC sensor, single conc. PD-L1/His; test group 1
Protocol: as §1

[13] = molecular target: T1, cynomolgus (cyno) PD-L1/His fusion …; experiment: ELISA, coated cyno PD-L1 protein
Protocol: as §2

[14] = molecular target: T2, human PD-L1/His fusion protein; experiment: BLI Octet RED96, antibody on AHC sensor, single conc. PD-L1/His; test group 2
Protocol: as §1

Sequence of human PD-L1/Fc Fusion Protein (human) (chain, as listed by the source limits assumed): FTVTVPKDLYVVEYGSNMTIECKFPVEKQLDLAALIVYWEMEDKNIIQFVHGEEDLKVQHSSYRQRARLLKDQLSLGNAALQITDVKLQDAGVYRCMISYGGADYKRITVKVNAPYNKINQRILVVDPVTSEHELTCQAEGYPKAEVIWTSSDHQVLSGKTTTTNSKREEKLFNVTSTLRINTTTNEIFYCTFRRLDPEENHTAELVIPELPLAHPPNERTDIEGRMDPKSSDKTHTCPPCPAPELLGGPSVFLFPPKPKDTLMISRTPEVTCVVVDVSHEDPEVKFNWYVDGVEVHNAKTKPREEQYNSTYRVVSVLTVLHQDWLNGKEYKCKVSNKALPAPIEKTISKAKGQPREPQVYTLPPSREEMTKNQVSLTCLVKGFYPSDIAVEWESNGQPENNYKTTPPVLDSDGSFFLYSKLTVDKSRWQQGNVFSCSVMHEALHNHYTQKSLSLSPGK
T2 sequence (Q9NZQ7 19-239 limits assumed): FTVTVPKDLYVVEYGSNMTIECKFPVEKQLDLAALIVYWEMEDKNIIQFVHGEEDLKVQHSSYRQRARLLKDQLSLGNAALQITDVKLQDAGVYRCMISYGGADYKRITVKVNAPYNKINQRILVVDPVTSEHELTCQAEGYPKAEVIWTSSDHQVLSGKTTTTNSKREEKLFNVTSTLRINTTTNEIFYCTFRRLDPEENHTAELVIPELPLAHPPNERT
T1 sequence (G7PSE7 entry or part of it): as the sequence (Q9NZQ7 19-239 limits assumed) above, with A33T, A34S, S62N, R68Q, Q82R, F173L, T185A, T192I, H215L counted along it
T3 sequence (Q9NZQ7 19-290): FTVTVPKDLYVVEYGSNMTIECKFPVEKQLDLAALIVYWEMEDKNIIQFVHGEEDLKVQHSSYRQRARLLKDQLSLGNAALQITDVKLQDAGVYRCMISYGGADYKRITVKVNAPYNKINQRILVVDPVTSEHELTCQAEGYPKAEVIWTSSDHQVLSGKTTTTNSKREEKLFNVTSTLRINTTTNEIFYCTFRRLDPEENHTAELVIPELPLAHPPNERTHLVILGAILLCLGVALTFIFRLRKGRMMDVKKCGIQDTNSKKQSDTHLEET

Binder | Kd [1] [nM] | Off-Rate Ratio to that of EM0005-87c [2] [%] | Off-Rate Ratio to that of EM0005-87c [3] [%] | koff [4] [s⁻¹] | koff [5] [s⁻¹] | Off-Rate Ratio to that of EM0005-87c [6] [%] | EC50 [7] [nM] | EC50 [8] [nM] | Kd [9] [nM] | IC50 [10] [nM] | Inhibition (percent) [10] [%] | Off-Rate Ratio to that of EM0005-87c [11] [%] | koff [12] [s⁻¹] | EC50 [13] [nM] | koff [14] [s⁻¹] | Off-Rate Ratio to that of EM0005-90c [2] [%] | Off-Rate Ratio to that of EM0005-90c [3] [%] | Off-Rate Ratio to that of EM0005-90c [6] [%] | Off-Rate Ratio to that of EM0005-90c [11] [%]
B1 | 0.493 | 100 | 100 | 0.00135 | 0.000897 | 100 | 0.42 | 0.08 | 0.981 | 0.94 | 93.9 | 100 | 0.00147 | 0.06 | 0.00104 |  |  |  | 
B2 | 0.837 |  |  | 0.000382 | 0.00225 |  | 0.21 | 0.15 | 0.681 | 1.05 | 94.4 |  | 0.000253 | 0.12 | 0.000342 | 100 | 100 | 100 | 100
